Data published in patent US20130251703A1 (Novartis, published 2013).

Legend:
[1] = biological target: T1, Hu HER3: CD33-[Human HER3, residues 20-640]-TAG (human, UniProt P21860 20-640); test: solution equilibrium titration (SET), IgG, ECL read-out
T1 construct: also called hu HER3-Tag; HER3-Tag; not shown: C-terminal TAG (e.g. FLAG TAG)

[2] = biological target: T2, Mu HER3: CD33-[Murine HER3, residues 20-643]-TAG (mouse, UniProt Q61526 20-643); test: as above
T2 construct: also called mu HER3-Tag; not shown: C-terminal TAG (e.g. FLAG TAG)

[3] = biological target: T3, Cyno HER3: CD33-[Cyno HER3, residues 20-643]-TAG (cynomolgus monkey, UniProt G7PIG5 20-643); test: as above
T3 construct: also called cy HER3-Tag; not shown: C-terminal TAG (e.g. FLAG TAG)

[4] = biological target: T4, human HER3 endogenously expressed on human cancer cells (SK-Br-3, BT-474, MCF7) (human, UniProt P21860 20-1342); test: cell-based or functional assay
[5] = biological target: T4, human HER3 endogenously expressed on …; test: cell-based or functional assay; remark: listed apart in the source
[6] = biological target: T4, human HER3 endogenously expressed on …; test: cell-based or functional assay; remark: listed apart in the source
[7] = biological target: T5, Rat HER3: CD33-[Rat HER3, residues 20-643]-TAG (rat, UniProt Q62799 20-643); test: solution equilibrium titration (SET), IgG, ECL read-out
T5 construct: also called ra HER3-Tag; not shown: C-terminal TAG (e.g. FLAG TAG)

Row | Binder | Kd [1] [nM] | Kd [2] [nM] | Kd [3] [nM] | MCF7 proliferation % inhibition [4] [%] | MCF7 proliferation IC50 [4] [nM] | SK-Br-3 proliferation % inhibition [4] [%] | SK-Br-3 proliferation IC50 [4] [nM] | BT474 pHER3 % inhibition [5] [%] | BT474 pHER3 IC50 [5] [pM] | MCF7 pHER3 % inhibition [5] [%] | MCF7 pHER3 IC50 [5] [pM] | SK-Br-3 pHER3 % inhibition [5] [%] | SK-Br-3 pHER3 IC50 [5] [pM] | BT-474 proliferation % inhibition [4] [%] | BT-474 proliferation IC50 [4] [nM] | BT-474 pAkt % inhibition [6] [%] | SK-Br-3 pAkt % inhibition [6] [%] | SK-Br-3 pAkt IC50 [6] [pM] | other results
1 | MOR12514 (antibody, human IgG1, lambda, V domains shown, Tested as IgG) VH: QVQLVQSGAEVKKPGASVKVSCKASGYTFTSYDIHWVRQAPGQGLEWMGRIDPYSGNTNYAQKFQGRVTMTRDTSISTAYMELSRLRSEDTAVYYCARGSFYTRDSYFDVWGQGTLVTVSS VL: DIALTQPASVSGSPGQSITISCTGTSSDVGTYNQVSWYQQHPGKAPKLMIYGVSKRPSGVSNRFSGSKSGNTASLTISGLQAEDEADYYCQVRDMSLFDVFGGGTKLTVLG | 0.97 | 2.4 | 1.4 | 29 | 0.317 | 36 | 0.044 | 70 | 707 | 67 | 435 | 77 | 223 |  |  |  |  |  | 
2 | MOR13655 (antibody, human IgG1, lambda, V domains shown, Tested as IgG) VH: QVQLVQSGAEVKKPGASVKVSCKASGYTFTSYDIHWVRQAPGQGLEWMGRIDPYSGNTNYAQKFQGRVTMTRDTSISTAYMELSRLRSEDTAVYYCARGSFYTRDSYFDVWGQGTLVTVSS VL: DIALTQPASVSGSPGQSITISCTGTSSDVGTYNQVSWYQQHPGKAPKLMIYGVSKRPSGVSNRFSGSKSGNTASLTISGLQAEDEADYYCSSATQKPDVTVFGGGTKLTVLG | 0.066 |  |  | 46 | 0.086 | 39 | 0.074 | 61 | 19 | 80 | 149 | 69 | 90 | 31 | 0.141 | 50 | 86 | 62 | MCF7 pAkt % inhibition [6]: 79%; MCF7 pAkt IC50 [6]: 251 pM
3 | MOR12516 (antibody, human IgG1, lambda, V domains shown, Tested as IgG) VH: QVQLVQSGAEVKKPGASVKVSCKASGYTFTSYDIHWVRQAPGQGLEWMGRIDPYSGNTNYAQKFQGRVTMTRDTSISTAYMELSRLRSEDTAVYYCARGSFYTRDSYFDVWGQGTLVTVSS VL: DIALTQPASVSGSPGQSITISCTGTSSDVGTYNQVSWYQQHPGKAPKLMIYGVSKRPSGVSNRFSGSKSGNTASLTISGLQAEDEADYYCQSRDTYRPVKVFGGGTKLTVLG | 1.8 | 3.9 | 3.6 | 34 | 0.492 | 34 | 2.08 | 63 |  | 62 | 590 | 74 | 1870 |  |  |  |  |  | 
4 | MOR12603 (antibody, human IgG1, kappa, V domains shown, Tested as IgG) VH: QVQLVQSGAEVKKPGSSVKVSCKASGGTFSSYAISWVRQAPGQGLEWMGLIIPRYGKARYAQKFQGRVTITADESTSTAYMELSSLRSEDTAVYYCARNWPYYYMDFWGQGTLVTVSS VL: DIVLTQSPATLSLSPGERATLSCRASQNIVFNLAWYQQKPGQAPRLLIYDASNRATGVPARFSGSGSGTDFTLTISSLEPEDFAVYYCQQTKNRPPTFGQGTKVEIKR | 2 | 4.1 | 6.1 | 44 | 0.058 | 36 | 0.034 | 70 | 79 | 77 | 11 | 74 | 18 | 37 | 0.136 | 77 | 84 | 17 | Kd [7]: 11 nM; BT-474 pAkt IC50 [6]: 137 pM

Second part, led by results:

Row | Kd [1] [nM] | Kd [2] [nM] | Kd [3] [nM] | MCF7 proliferation % inhibition [4] [%] | MCF7 proliferation IC50 [4] [nM] | SK-Br-3 proliferation % inhibition [4] [%] | SK-Br-3 proliferation IC50 [4] [nM] | BT474 pHER3 % inhibition [5] [%] | BT474 pHER3 IC50 [5] [pM] | MCF7 pHER3 % inhibition [5] [%] | MCF7 pHER3 IC50 [5] [pM] | SK-Br-3 pHER3 % inhibition [5] [%] | SK-Br-3 pHER3 IC50 [5] [pM] | BT-474 proliferation % inhibition [4] [%] | BT-474 proliferation IC50 [4] [nM] | BT-474 pAkt % inhibition [6] [%] | SK-Br-3 pAkt % inhibition [6] [%] | SK-Br-3 pAkt IC50 [6] [pM] | Binder | other results
5 | 0.87 | 1.5 | 0.72 | 26 | 1.09 | 36 | 0.278 | 71 | 365 | 71 | 674 | 76 | 278 |  |  |  |  |  | MOR12515 (antibody, human IgG1, lambda, V domains shown, Tested as IgG) VH: QVQLVQSGAEVKKPGASVKVSCKASGYTFTSYDIHWVRQAPGQGLEWMGRIDPYSGNTNYAQKFQGRVTMTRDTSISTAYMELSRLRSEDTAVYYCARGSFYTRDSYFDVWGQGTLVTVSS VL: DIALTQPASVSGSPGQSITISCTGTSSDVGTYNQVSWYQQHPGKAPKLMIYGVSKRPSGVSNRFSGSKSGNTASLTISGLQAEDEADYYCYSRDSPMDQVFGGGTKLTVLG | 
6 | 0.15 | 0.56 | 0.6 | 31 | 2.31 | 42 | 0.432 | 65 | 418 | 79 | 1230 | 68 | 252 |  |  |  |  |  | MOR12921 (antibody, human IgG1, lambda, V domains shown, Tested as IgG) VH: QVQLVQSGAEVKKPGASVKVSCKASGYTFTGYYMHWVRQAPGQGLEWMGDIDPHSGNAVYAQKFQGRVTMTRDTSISTAYMELSRLRSEDTAVYYCARGSFYTRDSYFDVWGQGTLVTVSS VL: DIALTQPASVSGSPGQSITISCTGTSSDVGTYNQVSWYQQHPGKAPKLMIYGVSKRPSGVSNRFSGSKSGNTASLTISGLQAEDEADYYCSSRDLIGHYVFGGGTKLTVLG | Kd [7]: 0.69 nM
7 | 0.11 |  |  |  |  | 34 | 0.136 | 61 | 195 | 77 | 331 | 69 | 182 | 27 | 0.632 | 58 | 92 | 89 | MOR13654 (antibody, human IgG1, lambda, V domains shown, Tested as IgG) VH: QVQLVQSGAEVKKPGASVKVSCKASGYTFTSYDIHWVRQAPGQGLEWMGRIDPYSGNTNYAQKFQGRVTMTRDTSISTAYMELSRLRSEDTAVYYCARGSFYTRDSYFDVWGQGTLVTVSS VL: DIALTQPASVSGSPGQSITISCTGTSSDVGTYNQVSWYQQHPGKAPKLMIYGVSKRPSGVSNRFSGSKSGNTASLTISGLQAEDEADYYCQSRGEYRPGWVFGGGTKLTVLG | BT-474 pAkt IC50 [6]: 142 pM; MCF7 pAkt % inhibition [6]: 72%; MCF7 pAkt IC50 [6]: 244 pM
